Legend:
HCC-1954 = test: 144-hour CellTiter-Glo cytotoxicity assay, DV and T-DXd; type: cell-based; conditions: HCC-1954, 1,259,000 HER2 receptors/cell, 1-10,000 ng/mL
Procedure: (§1) DV and T-DXd were evaluated against breast cancer cell lines spanning a range of HER2 expression levels (calculated by quantitative flow cytometry): HCC-1954 with 1,259,000 HER2 receptors/cell, MDA-MB-361 with 60,000 HER2 receptors/cell, and HCC-38 with 20,000 HER2 receptors/cell. Drugs were titrated (1-10,000 ng/mL), and viability was tested in a 144-hour CellTiter-Glo cytotoxicity assay.

HCC-38 = test: as above; type: cell-based; conditions: HCC-38, 20,000 HER2 receptors/cell, 1-10,000 ng/mL
Procedure: as §1

MDA-MB-361 = test: as above; type: cell-based; conditions: MDA-MB-361, 60,000 HER2 receptors/cell, 1-10,000 ng/mL
Procedure: as §1

[1] = system: PDO SG-111-444-6273 (HER2 low); test: Patient-derived organoid cytotoxicity, caspase-3/7 fluorescence imaging; type: cell-based; conditions: DV 27-6,700 ng/mL, T-DXd 41-10,000 ng/mL
Procedure: (§2) DV and T-DXd were also tested against a panel of PDOs: HER2 low SG-111-444-6273, HER2 low SG-634-395-2953, and HER2 moderate SG-553-819-8499. DV was titrated across a range of 27-6,700 ng/mL, while T-DXd was titrated across a range of 41-10,000 ng/mL. Drug and media was exchanged every four days. Analysis was conducted with fluorescence imaging: PDOs were identified from clusters of Hoechst positive cells, and caspase-3/7 was used for the identification of apoptotic cells. Mean caspase-3/7 intensity was measured per well and normalized to cell count.

[2] = system: PDO SG-553-819-8499 (HER2 moderate); test: as above; type: cell-based; conditions: DV 27-6,700 ng/mL, T-DXd 41-10,000 ng/mL
Procedure: as §2

[3] = system: PDO SG-634-395-2953 (HER2 low); test: as above; type: cell-based; conditions: DV 27-6,700 ng/mL, T-DXd 41-10,000 ng/mL
Procedure: as §2

[4] = system: GA3102 (IHC 3+) gastric cancer PDX; test: Tumor volume / normalized AUC in gastric cancer PDX model; type: in vivo, Mice; conditions: GA3102 (FIGS. 12K, 12L); tucatinib 50 mg/kg oral twice daily, DV 2 mg/kg intravenous single dose
Text: (§3) FIGS. […] show the effects of combining DV and tucatinib vs. DV as a single agent in gastric cancer patient-derived xenograft (PDX) models with varying HER2 expression levels: GA13745 (IHC 1+; FIGS. 12A, 12B), GA6821 (IHC 1+; FIGS. 12C, 12D), CTG-0148 (IHC 1+; FIGS. 12E, 12F), CTG-3036 (IHC 2+; FIGS. 12G, 12H), CTG-3033 (IHC 3+; FIGS. 12I, 12J), and GA3102 (IHC 3+; FIGS. 12K, 12L). Treatment with T-DXd, a HER2-directed ADC, was also included in the study. Tumor volume data shown as mean±SEM. For each model, tumor growth was evaluated using a normalized area under the curve (AUC) metric (see, Guo, S. et al. (2019) BMC Cancer 19, 718) (FIGS. 12A, 12C, 12E, 12G, 12I, 12K). AUC was calculated for each model for the duration of the experiment, then compared by one-way ANOVA followed by Tukey's post-hoc test. The box-and-whisker plots represent the median and range for each treatment group (FIGS. 12B, 12D, 12F, 12H, 12J, 12L). […]
(§4) DV and tucatinib were tested as monotherapies and in combination in PDX models with varying HER2 expression levels. […] Mice (n=10/group) were treated with tucatinib (50 mg/kg oral, twice daily), DV (2 mg/kg, intravenous, single dose), a combination of tucatinib and DV, or T-DXd (2 mg/kg, intravenous, single dose), and tumor volume was measured over time.

[5] = system: GA6821 (IHC 1+) gastric cancer PDX; test: as above; type: in vivo, Mice; conditions: GA6821 (FIGS. 12C, 12D); tucatinib 50 mg/kg oral twice daily, DV 2 mg/kg intravenous single dose
Text: as §3, §4

In the case of disitamab vedotin [DV], the “single-agent cytotoxic activity as compared to T-DXd” value (HCC-1954) is reported as “more potent single-agent cytotoxic activity”, the “single-agent cytotoxic activity as compared to T-DXd” value (HCC-38) is reported as “more potent single-agent cytotoxic activity” and the “single-agent cytotoxic activity as compared to T-DXd” value (MDA-MB-361) is reported as “more potent single-agent cytotoxic activity”. The “single-agent cytotoxic activity as compared to T-DXd (caspase-3/7 intensity)” value [1] was “more potent single-agent cytotoxic activity”, the “single-agent cytotoxic activity as compared to T-DXd (caspase-3/7 intensity)” value [2] was “more potent single-agent cytotoxic activity” and the “single-agent cytotoxic activity as compared to T-DXd (caspase-3/7 intensity)” value [3] was “more potent single-agent cytotoxic activity”. For the same substance, the “anti-tumor activity compared to untreated control (normalized AUC tumor growth metric)” value [4] was “significant anti-tumor activity” and the “anti-tumor activity compared to untreated control (normalized AUC tumor growth metric)” value [5] was “significant anti-tumor activity”.
